Experimental data from the DeepSol protein solubility set.

Assay: soluble on expression in E. coli; label from the status in PepcDB or PDB records

Row | Sequence | soluble on expression in E. coli
1 | MDIMLVLWNGTPPMTRPEIEKVINTKKKLASTTILSLLTRLESKNFVEVTKQGKLNLYTPLVSQSDYQAHESQSVLEKLYGNSLKKFVTSLYQGKKISSEEIHELSDFLKELEDGEE | not soluble
2 | MEYFNVGKIVNTQGLQGEMRVLSVSDFAEERFKKGSQLALFDDKDRFVQEVTIVSHRKQKHFDIIKFKDMYHINAIEKYKGYTLKVSKDNQGDLQEGEFYYHQIIGMAVYEKDVLIGHVKEILQPGANDVWIVKRQGKRDLLLPYIPPVVLNVDVPNKRVDVELMEGLDDED | not soluble
3 | MDTIWDADLQSAALKAEHHRLKTERLSLGYEGKSVCDALDLAIPHGKFSVIVGPNGCGKSTLLKSLCRLLKPLAGQVLLDGQNIHQLPTKVVAKQLGLLPQSALTPEGIKVVDLVSRGRYPHQGLFRQWSRVDERAVEEAMRATHVHELAQHSVDQLSGGQRQRVWVAMALAQQTPYLLLDEPTTYLDIAHQIELLDLFWRLNRQQGHTLVAVLHDLNQACRYADHLIVLQEGKIVAQGDPHSLVTPALVKQVFGIDCVVMPDPISCTPLIIPYSLKRG | not soluble
4 | METPLEKALTTMVTTFHKYSGREGSKLTLSRKELKELIKKELCLGEMKESSIDDLMKSLDKNSDQEIDFKEYSVFLTMLCMAYNDFFLEDNK | soluble
5 | MATPTEKQILTLAQWFSPAYPVGAFAYSHGLEWSVEAGDVVDARTAQAWITDVLQHGAGWNDCLFIGSAYRAASLQELKNINDTALAFSASSERMMETRLQGEAFCGITASVWPVDLAGLCYPVAVGRAANLVGLPLTLSGQFYLHAFMANLVTAATRLVPLGQTEGQQIIRDLTPLCQAIADTALCANLSHLTSTAFLGDIAAMKHETQYSRMFRTLEHHHHHH | not soluble
6 | MGSDKIHHHHHHMKFSLGPSLFFWPKNEVVDFYQQAKESSADVIYLGETVCSKRRELRAKDWLGLAQDVAQDTNKQVVVSTMTLLESPAEIQVLKRLCDNGEFLVEANDLSAVQIMHELKMPFVAGPAINCYNLSTLKVLLKQGMTRWLMPVELSGDWLKILLEQATEAGIRQQFECEVFSWGYLPLAYSARCFTARSEDKAKDDCEYCCIKYPEGRRMNSREGERVFVLNGIQTLSGYQYNLINEMPALDAMGVDIARISADSTEAFTQLDNFREQLVNPTRKELDGVTECNGFWHKIAGMSVA | not soluble
7 | MGSDKIHHHHHHMENLTLKGKVILEGIIELETGMHIGGTKETLKIGGTDNPVIRDAFGRILIPGSSLKGKIRALLERKDGKYKEDGRGNYLPHDCGECEICKIFGPHDSKNIKEPVRVIVRDAYLQPEENKKDYDYLEIKVENTIDRLKGTTIKGGIRNMERVVAGSKFKFEVVFNIYKESDKELIKKFIEGMKLLEDDYLGGSGSRGYGKIKFRDIKLICKPKEYYEGNENSKKESDEVESLNELESELDKIWGGINFN | not soluble
8 | IEERMNEYFNWLKQNYIFKELDSSTEITTPFKNHLNDFIRIYADTLPNNEICLSDDGLTINELEMLGIDINTKTRTKLIQNILNQFNLKLVDKEITADVKNESFAQSKHNLIQGILKIYDLTLTTKSNVTNIFYEEVFEFLYDQKIRGLAQVSVSGESGLKYSIDYIVSETKSQPEKLVNFTNNLDFNKITNEAYIYRDIKPNRPSRNKLEPIMLIIVNDVDHPINERAQTVAEHENLEILKWSNKSKIIETL | not soluble
9 | YMVPGLWGAPLKAVSAFAPPMKTQDFNLYTNEVHAKFDDYDLGMEYARQHNKPVMLDFTGYGCVNCRKMELAVWTDPKVSSIINNDYVLITLYVDNKTPLTEPVKIMENGTERTLRTVGDKWSYLQRVKFGANAQPFYVLIDNEGNPLNKSYAYDEDISKYINFLQTGLENYRKEK | not soluble
10 | MRGSHHHHHHGSEYPERPVNMVVPFAAGGPTDNVARSLAESMRPTLGETVVVENKGGAGGTIGTTQVARAQPDGYSILLMHAGFSTAPSLYKNPGYEPYTSFEPIGLVVDVPMTIIARGDFPPNNIKELAEYVKKNADKISLANAGIGAASHLCGTMLVEALGVNLLTIPYKGTAPAMNDLLGKQVDLMCDQTTNTTQQITSGKVKAYAVTSLKRVPTLPDLPTMDESGYKGFEVGIWHGMWAPKGTPKPVVDKLVKSLQAGLADPKFQERMKQLGAEVLTNEANPEALQAKVKQQVPQWAELFKKAGVEKQ | soluble
11 | MGSDKIHHHHHHMFPFERQNKIIHLLDQNSKITVPELSRILDVSISTIRNDLSSLEESGMIKKVHGGAVLLKSEEKFTNFNDRIIRNIEEKEAIAKEAATLVKNNQTIILDASSTALALAKELHGFSRLTVITSGLYTAIELKDNPNISVILTGGIVTTNSFTLEGILGANLIENIHADLCFMSAKGFTMEEGLTDFNIYETELKRLLAKRTNKLIALLDHTKMGVISTASITAAENIDLLITDNKINKALYKKFQDAGLPVKIAE | not soluble
12 | MLKYMLDTNIAIYVIKRRPIEVLVTFNRYADMMCVSAVTEAELLHGAEKSRQREHNLRQVADFLSRLEVLSYTSKAAGHYGDIRADLERKEKPIGVNDLHIAAHARSEGFILVSNNLREFERVDGLRLENWIT | not soluble
13 | MELQQLPQHVRDAFHAPNTPPRQLGVAWDYGWRVGNVAFSQVIHPDRSAWSARVRDKLQPQGLRVVRPLKSTDGRYINAGWRANSFEEGTLARRVDETVVAALRLDTALADIDVPDSFSEPDSHDLFSLADHSAWAPEPMVALGVTSDAEAVFLNPAQLTAQRLLPKIVLLLRDIDAPIQVTHADMFATTIYSGNQMPVVTDLVGVARPYGYTAAVCIVDALLAGAVDEGIIDRFSHIQHRDQLLLRALVYRIAVHALHPESTSNTGTNLEWVSQTIMSRASVTL | soluble
14 | MMAAREQRSFRQLSLLRQFEGQSLLCASMNIPGPIKCSESLNKTFQSIINLVKEDLRGRIIFEREVHQKTGWEYYCLSDLPVSELKTKMIAIETKISIGRLMDLDVLHLVNGIPQPISRQELGFPRRQCYICQNDAKVCSRSRKHSVIEMQEAIAKFIKINH | not soluble
15 | MRNLVKYAGIGLLVMGLAACDNNDTKASAESAAAESQASGQPISLMDGKLSFSLPADMTDQSGKLGTQANNMHVYSDPTGQKAVIVIVGDNTDEALPVLANRLLEQQRSRDPQLQVVTNKSIELKGHTLQQLDSIISAKGQTAYSSIVLGKVDNQLLTIQVTLPADNQQKAQTTAENIINTLVIK | not soluble
16 | MGDLKDGTYKLEEKNEKNGYRAVFEMTVKDGKITESKYDNINADGKSKTEDTKYEESMKAKSGVGPKEYIKQLNDSFVKAQSASGVEVVTGATHSSESFQNYAQQLIQAAQAGNTDTIEIDNGATLKDGTYSLKEKNDSNGYHTTFSMTVKDGKVTESNYDNVNADGKSKKDDTEYESKMKDVAGVGPKEYIETLNKEFVKAMGEEDGSPAGVEVVTGATHSTHSFINYAQQLVNAAEKGDTTEIVVDNIVTKLEHHHHHH | soluble
17 | MGSDKIHHHHHHMASISIRCPSCSATEGVVRNGKSTAGHQRYLCSHCRKTWQLQFTYTASQPGTHQKIIDMAMNGVGCRASARIMGVGLYTVLRHLKNSAESVTSRIQPGSDVIVCAEMDEHWGYVGAKSRQRWLFYAYDRIRRTVVAHVFGERTLATLERLLSLLSAFEVVVWMTDGCPLYESRLKGKLHVISKRYTQRIERHNLNLRQHLARLVRKSLSFSKSVELHDKAIGHYLNIKHYQ | not soluble
18 | MVADSQPGHIDQIKQTNAGAVYRLIDQLGPVSRIDLSRLAQLAPASITKIVREMLEAHLVQELEIKEAGSRGRPAVGLMVETEAWHYLSIRISRGEIFLALRDLSSKLVVEECLPLPLTEATPLLERIITHVDRFFTRHQQKLERLTSIAITLPGIIDTENGVVHRMPYYEDVKEMPLGDSLERHTGVPVYIQHDISAWTMAEALFGASRGARDVIQVVIDHNVGAGVITDGHLLHAGSSSLVEIGHTQVDPYGKRCYCGNHGCLETIASVDSVLELTQLRLNQSMSSMLHGQPLTVDSLCQAAMQGDLLAKDIISGVGAHVGRILAIMVNLFNPQKILIGSPLSKAADILFPAIADSIRQQALPAYSRNTVVESTQFTNQGTMAGAALVKDAMYNGSLLIRLLQG | not soluble
19 | GGVVLRVVTVLEEPFVMVSENVLGKPKKYQGFSIDVLDALSNYLGFNYEIYVAPDHKYGSPQEDGTWNGLVGELVFKRADIGISALTITPDRENVVDFTTRYMDYSVGVLLRRGTSIQSLQDLSKQTDIPYGTVLDSAVYQHVRMKGLNPFERDSMYSQMWRMINRSNGSENNVLESQAGIQKVKYGNYAFVWDAAVLEYVAINDPDCSFYTVGNTVADRGYGIALQHGSPYRDVFSQRILELQQSGDMDILKHKWWPKNGQCDL | soluble
20 | MTTQTTPAHIAMFSIAAHGHVNPSLEVIRELVARGHRVTYAIPPVFADKVAATGPRPVLYHSTLPGPDADPEAWGSTLLDNVEPFLNDAIQALPQLADAYADDIPDLVLHDITSYPARVLARRWGVPAVSLSPNLVAWKGYEEEVAEPMWREPRQTERGRAYYARFEAWLKENGITEHPDTFASHPPRSLVLIPKALQPHADRVDEDVYTFVGACQGDRAEEGGWQRPAGAEKVVLVSLGSAFTKQPAFYRECVRAFGNLPGWHLVLQIGRKVTPAELGELPDNVEVHDWVPQLAILRQADLFVTHAGAGGSQEGLATATPMIAVPQAVDQFGNADMLQGLGVARKLATEEATADLLRETALALVDDPEVARRLRRIQAEMAQEGGTRRAADLIEAELPARHERQEPVGDRPNVGDRPAGVRSDRQRSAL | soluble
21 | MASSSSGGAGGAGGASGAPEVKIHNVYMSNVEEEFARIRGFVEDYPYVAMDTEFPGVVATPLGTFRSKEDFNYQQVFCNVNMLKLIQVGFAMVNDKGELPPTGDVWQFNFNFSFAEDMFSHESVEMLRQAGIDFTLLQNNGIPTAVFGELLTTSGLITDPRITWLTFSSGYDFGYLLKSITLGDLPKEESTFFMCHKTLFPTSFDIKILLRTPNCASAKLKGGLQEVADQLDVKRQGVRHQAGSDALLTAATFFKIKKQFFGDNWNQIAPLICGHMFGLGSSLSLFHSSGSTSRLGDETPQGLIGVPQQA | not soluble
22 | MGSDKIHHHHHHMDHEQIESQPWPQEGLERVERCPICGEVDRALLHDGLTDKIFFCAPGRWSLYQCPTCGAAYLDPRPTPATIAMAYSDYYTHEEGDDAPKGRFAHLKRRLRNDYLNARYNADLQPAWKVGRWITPLLGRKRKQIDESVRHLPATGKPGVLVDIGCGNGQFLGVAMQLGWEAWGVDLDPKAVKTAQKTGATVIQGGFPDTGLPSAHFDIVTLSHVIEHVHDPLAALREAFRVLKPGGHLWLATPNMGSFGHVRFGADWRGLEPPRHLVLFNNNSLEIALDGAGFIDIKQKPCLAQAAWFYQSSLRISRCQDPYDASASGLPLTLWIAAKLVDFRVAVSPFRCESIVVTAKRPESD | not soluble
23 | MGSDKIHHHHHHAEEKNLSEQWPVVASYQWAGQDSVVVCDLSLLKDTVDLPFSFFLKDFQIIKLDNRDEAMVGENNLCVSENYILVYGSVYELHPCRLFTKKGEFVTNIGAIGQGPGEYRAVYKAEIDEKHNCIYLMPFANSNAIYVYDLAGKPLRSIPLHQPVSKAVFKVDADKRELTVGALPFTGYPFVAWVQDFEGHLLDSVPAARHLSVLPDYSNEVMYGANTEVFDLYISTFFELRPDTLYHYIRSESRLKPRFTLNIGDRKRSITTFYELPQAYVGRLMVEEQVGDGMWETKSPSNFIVDKASLRGTFFRVINDFAGGMPDRLWTPWSLRNKQYIRLVEPGVLKAEIESYLSSTDGRKGKNRKKLQELCESIGEEDNSYVIYAKQKGVQ | not soluble
